Experimental data as given in paper PMC10599630, “Human interleukin-12α and EBI3 are cytokines with anti-inflammatory functions” (Science Advances, 2023).
One block for each binder: values may come before it.

Experiments:
[1] = target: T1, EBI3 (purified from Expi293) (human, UniProt Q14213 21-229); assay: pull-down; called co-IP with purified proteins: 1 μg of one protein and an equimolar amount of the other in 200 μl PBS, 1 hour at room temperature; Ni-nitrilotriacetic acid beads 2 hours at 4°C; wash PBS with 20 mM imidazole, elution 500 mM imidazole; conditions: both partners purified
T1 construct: human EBI3, UniProt Q14213; untagged; Untagged; pHEK293 ultra expression vector 1; also called recombinant human EBI3; source: Expi293, co-transfected with IL-27α^L162C,His
T1 sequence (looked up): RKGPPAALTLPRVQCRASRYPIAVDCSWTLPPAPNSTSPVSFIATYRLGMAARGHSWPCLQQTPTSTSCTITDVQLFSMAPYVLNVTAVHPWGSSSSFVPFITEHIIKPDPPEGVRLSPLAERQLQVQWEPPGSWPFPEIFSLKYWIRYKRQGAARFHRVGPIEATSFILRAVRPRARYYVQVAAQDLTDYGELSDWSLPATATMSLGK

[2] = target: T2, recombinant human IL-12β^C199S (previously purified) (human, UniProt P29460 23-328, C199S); assay: as above; conditions: both partners purified
T2 construct: human interleukin-12 subunit beta (IL-12β/p40), UniProt P29460, with C199S; it may be the same construct as m7; also called p40 C199S; source: previously purified in our laboratory
T2 sequence (looked up): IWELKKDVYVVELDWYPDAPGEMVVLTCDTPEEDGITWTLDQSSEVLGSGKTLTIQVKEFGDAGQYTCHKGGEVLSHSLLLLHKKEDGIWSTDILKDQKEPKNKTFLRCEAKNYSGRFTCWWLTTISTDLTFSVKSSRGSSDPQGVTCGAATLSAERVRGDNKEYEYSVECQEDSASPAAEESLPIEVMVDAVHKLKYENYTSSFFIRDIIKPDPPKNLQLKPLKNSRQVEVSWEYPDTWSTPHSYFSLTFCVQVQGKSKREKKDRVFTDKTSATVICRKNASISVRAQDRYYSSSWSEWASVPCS

binding result [1]: binds
B1: murine IL-27α (natural protein, UniProt Q8K3I6 29-234, looked up)
chain: FPTDPLSLQELRREFTVSLYLARKLLSEVQGYVHSFAESRLPGVNLDLLPLGYHLPNVSLTFQAWHHLSDSERLCFLATTLRPFPAMLGGLGTQGTWTSSEREQLWAMRLDLRDLHRHLRFQVLAAGFKCSKEEEDKEEEEEEEEEEKKLPLGALGGPNQVSSQVSWPQLLYTYQLLHSLELVLSRAVRDLLLLSLPRRPGSAWDS
notes: mouse interleukin-27 subunit alpha (IL-27α/p28), bought recombinant protein; also called mIL-27α; source: bought: R&D Systems, 7430-ML-010

binding result [2]: binds
B2: IL-12α^C96S,His (natural protein, human, UniProt P29459 23-219, looked up)
chain: RNLPVATPDPGMFPCLHHSQNLLRAVSNMLQKARQTLEFYPCTSEEIDHEDITKDKTSTVEACLPLELTKNESSLNSRETSFITNGSCLASRKTSFMMALCLSSIYEDLKMYQVEFKTMNAKLLMDPKRQIFLDQNMLAVIDELMQALNFNSETVPQKSSLEEPDFYKTKIKLCILLHAFRIRAVTIDRVMSYLNAS
notes: human interleukin-12 subunit alpha (IL-12α/p35), UniProt P29459, with C96S (the cysteine of the interchain disulfide bond of IL-12); C-terminal TEV cleavage site followed by a GG-linker and His-tag; pcDNA3.4TOPO vector; also called IL-12αC96S with His-tag; source: ExpiCHO, co-transfected with IL-12β^C199S; not shown: His-tag, C-terminal, kept
